# Reference: IntAct's records for PubMed 22904282
# B1: DNA-directed RNA polymerase subunit beta (Mycobacterium tuberculosis (strain ATCC 25618 / P9WGY9 (parent)
# chain: MLEGCILADSRQSKTAASPSPSRPQSSSNNSVPGAPNRVSFAKLREPLEVPGLLDVQTDSFEWLIGSPRWRESAAERGDVNPVGGLEEVLYELSPIEDFSGSMSLSFSDPRFDDVKAPVDECKDKDMTYAAPLFVTAEFINNNTGEIKSQTVFMGDFPMMTEKGTFIINGTERVVVSQLVRSPGVYFDETIDKSTDKTLHSVKVIPSRGAWLEFDVDKRDTVGVRIDRKRRQPVTVLLKALGWTSEQIVERFGFSEIMRSTLEKDNTVGTDEALLDIYRKLRPGEPPTKESAQTLLENLFFKEKRYDLARVGRYKVNKKLGLHVGEPITSSTLTEEDVVATIEYLVRLHEGQTTMTVPGGVEVPVETDDIDHFGNRRLRTVGELIQNQIRVGMSRMERVVRERMTTQDVEAITPQTLINIRPVVAAIKEFFGTSQLSQFMDQNNPLSGLTHKRRLSALGPGGLSRERAGLEVRDVHPSHYGRMCPIETPEGPNIGLIGSLSVYARVNPFGFIETPYRKVVDGVVSDEIVYLTADEEDRHVVAQANSPIDADGRFVEPRVLVRRKAGEVEYVPSSEVDYMDVSPRQMVSVATAMIPFLEHDDANRALMGANMQRQAVPLVRSEAPLVGTGMELRAAIDAGDVVVAEESGVIEEVSADYITVMHDNGTRRTYRMRKFARSNHGTCANQCPIVDAGDRVEAGQVIADGPCTDDGEMALGKNLLVAIMPWEGHNYEDAIILSNRLVEEDVLTSIHIEEHEIDARDTKLGAEEITRDIPNISDEVLADLDERGIVRIGAEVRDGDILVGKVTPKGETELTPEERLLRAIFGEKAREVRDTSLKVPHGESGKVIGIRVFSREDEDELPAGVNELVRVYVAQKRKISDGDKLAGRHGNKGVIGKILPVEDMPFLADGTPVDIILNTHGVPRRMNIGQILETHLGWCAHSGWKVDAAKGVPDWAARLPDELLEAQPNAIVSTPVFDGAQEAELQGLLSCTLPNRDGDVLVDADGKAMLFDGRSGEPFPYPVTVGYMYIMKLHHLVDDKIHARSTGPYSMITQQPLGGKAQFGGQRFGEMECWAMQAYGAAYTLQELLTIKSDDTVGRVKVYEAIVKGENIPEPGIPESFKVLLKELQSLCLNVEVLSSDGAAIELREGEDEDLERAAANLGINLSRNESASVEDLA
# partner: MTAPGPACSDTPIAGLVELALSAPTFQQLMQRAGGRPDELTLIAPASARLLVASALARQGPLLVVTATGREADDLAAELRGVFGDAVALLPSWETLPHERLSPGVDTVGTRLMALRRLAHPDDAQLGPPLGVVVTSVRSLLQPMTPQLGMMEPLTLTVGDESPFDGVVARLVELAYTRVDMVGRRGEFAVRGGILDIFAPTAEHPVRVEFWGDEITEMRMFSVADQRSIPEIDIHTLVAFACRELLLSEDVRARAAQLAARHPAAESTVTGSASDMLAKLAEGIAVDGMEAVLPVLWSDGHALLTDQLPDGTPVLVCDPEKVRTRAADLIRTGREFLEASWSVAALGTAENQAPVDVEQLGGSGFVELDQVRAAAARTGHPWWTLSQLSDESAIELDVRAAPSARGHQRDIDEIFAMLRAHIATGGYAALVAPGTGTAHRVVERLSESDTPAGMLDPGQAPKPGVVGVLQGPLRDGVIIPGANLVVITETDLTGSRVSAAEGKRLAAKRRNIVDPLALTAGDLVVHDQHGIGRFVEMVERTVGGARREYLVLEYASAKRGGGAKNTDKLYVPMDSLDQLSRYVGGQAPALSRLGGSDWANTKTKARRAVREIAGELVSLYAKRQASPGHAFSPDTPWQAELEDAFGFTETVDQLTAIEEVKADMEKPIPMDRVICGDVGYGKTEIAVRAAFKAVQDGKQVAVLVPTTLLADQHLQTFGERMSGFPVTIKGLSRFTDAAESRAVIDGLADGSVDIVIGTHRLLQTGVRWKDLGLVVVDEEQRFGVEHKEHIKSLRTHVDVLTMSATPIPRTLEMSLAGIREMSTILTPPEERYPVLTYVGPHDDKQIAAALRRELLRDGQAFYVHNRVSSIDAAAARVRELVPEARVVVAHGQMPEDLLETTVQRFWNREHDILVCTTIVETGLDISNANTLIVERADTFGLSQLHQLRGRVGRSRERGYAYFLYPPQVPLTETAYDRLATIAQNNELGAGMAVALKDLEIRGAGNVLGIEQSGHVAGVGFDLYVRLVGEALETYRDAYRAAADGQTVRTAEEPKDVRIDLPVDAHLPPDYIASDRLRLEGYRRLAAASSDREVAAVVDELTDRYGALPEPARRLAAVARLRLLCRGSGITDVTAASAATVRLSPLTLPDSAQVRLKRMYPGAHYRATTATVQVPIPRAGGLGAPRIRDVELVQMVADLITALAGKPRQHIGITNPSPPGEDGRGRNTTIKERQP
# B2: DNA-directed RNA polymerase subunit beta (Mycobacterium tuberculosis (strain ATCC 25618 / P9WGY9 (parent)
# chain: B1 chain
# B3: RNA polymerase-binding transcription factor CarD (Mycobacterium tuberculosis (strain ATCC 25618 / P9WJG3 (parent)
# chain: MIFKVGDTVVYPHHGAALVEAIETRTIKGEQKEYLVLKVAQGDLTVRVPAENAEYVGVRDVVGQEGLDKVFQVLRAPHTEEPTNWSRRYKANLEKLASGDVNKVAEVVRDLWRRDQERGLSAGEKRMLAKARQILVGELALAESTDDAKAETILDEVLAAAS
# Variants of: B1
# Settings: with mfd_myctu mfd
row,Variant,effect of a mutation on the interaction
1,E138R,disrupting interaction
2,S149A,decreasing interaction strength
3,I147A,disrupting interaction

# Variants of: B2
# Settings: with card_myctu carD
row,Variant,effect of a mutation on the interaction
1,E138R,disrupting interaction
2,S149A,decreasing interaction
3,I147A,disrupting interaction

# Variants of: B3
# Settings: with rpob_myctu rpoB
row,Variant,effect of a mutation on the interaction
1,R25E,decreasing interaction strength
2,R47E,decreasing interaction strength
